Patent US20220002423A1 (GENERAL HOSPITAL, published 2022)

Key:
[1] = target: T1, TNFR2, hTNFR2 (23-207), 20kD (human, UniProt P20333); experiment: ELISA, antibody alone
T1 construct: fragment 23-207, 20kD (so in the source)
T1 sequence (receptor fragment, looked up): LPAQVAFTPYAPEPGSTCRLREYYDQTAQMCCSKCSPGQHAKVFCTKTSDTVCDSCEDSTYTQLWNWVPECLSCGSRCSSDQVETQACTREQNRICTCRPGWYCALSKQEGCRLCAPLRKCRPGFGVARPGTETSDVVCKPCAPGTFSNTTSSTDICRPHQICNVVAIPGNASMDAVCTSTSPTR

[2] = target: T2, Amino acid residues 58-77 of human TNFR2 (human); experiment: ELISA, antibody alone
T2 peptide: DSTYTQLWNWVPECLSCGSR

[3] = target: T3, Amino acid residues 66-85 of human TNFR2 (human); experiment: ELISA, antibody alone
T3 peptide: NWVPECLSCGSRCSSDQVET

[4] = target: T4, Amino acid residues 74-93 of human TNFR2 (human); experiment: ELISA, antibody alone
T4 peptide: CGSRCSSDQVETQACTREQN

[5] = target: T5, Amino acid residues 82-101 of human TNFR2 (human); experiment: ELISA, antibody alone
T5 peptide: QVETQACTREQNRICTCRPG

[6] = target: T6, Amino acid residues 90-109 of human TNFR2 (human); experiment: ELISA, antibody alone
T6 peptide: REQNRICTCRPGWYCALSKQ

[7] = target: T7, Amino acid residues 170-189 of human TNFR2 (human); experiment: ELISA, antibody alone
T7 peptide: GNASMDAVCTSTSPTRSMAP

[8] = target: T8, Amino acid residues 9-28 of human TNFR2 (human); experiment: ELISA, antibody alone
T8 peptide: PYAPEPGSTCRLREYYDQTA

[9] = target: T9, Amino acid residues 17-36 of human TNFR2 (human); experiment: ELISA, antibody alone
T9 peptide: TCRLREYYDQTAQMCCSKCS

[10] = target: T10, Amino acid residues 42-61 of human TNFR2 (human); experiment: ELISA, antibody alone
T10 peptide: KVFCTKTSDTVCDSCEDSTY

[11] = target: T11, Amino acid residues 50-69 of human TNFR2 (human); experiment: ELISA, antibody alone
T11 peptide: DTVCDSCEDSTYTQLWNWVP

[12] = target: T3, Amino acid residues 66-85 of human TNFR2; experiment: ELISA, antibody with TNFα added
[13] = target: T5, Amino acid residues 82-101 of human …; experiment: ELISA, coated linear peptides 1 µg/well
Description: (§1) ELISA was also used to determine linear epitopes present on the extracellular surface of TNFR2. Linear peptides corresponding to various regions within the TNFR2 primary sequence were purchased from GenScript (Piscataway, N.J.), diluted in coating buffer and placed on Immulon 4HBX Flat Bottom Microtiter Plates (Thermo Scientific) at a concentration of 1 μg/well. Primary TNFR2 agonistic antibodies (0.1 μg/well) were incubated with substrates. Secondary antibodies against rodent IgG were used to detect the primary antibodies. Absorbance was measured using the SPECTRAMAX® 190 Absorbance Plate Reader and analyzed with SoftMax Pro 6.3 (Molecular Devices).

[14] = target: T12, Amino acid residues 114-133 of human TNFR2 (human); experiment: ELISA, coated linear peptides 1 µg/well
T12 peptide: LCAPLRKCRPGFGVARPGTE
Description: as §1

[15] = target: T13, Amino acid residues 122-141 of human TNFR2 (human); experiment: ELISA, coated linear peptides 1 µg/well
T13 peptide: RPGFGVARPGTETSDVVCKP
Description: as §1

[16] = target: T14, Amino acid residues 130-149 of human TNFR2 (human); experiment: ELISA, coated linear peptides 1 µg/well
T14 peptide: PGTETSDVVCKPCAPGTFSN
Description: as §1

[17] = target: T15, Amino acid residues 138-157 of human TNFR2 (human); experiment: ELISA, coated linear peptides 1 µg/well
T15 peptide: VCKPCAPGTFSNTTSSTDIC
Description: as §1

[18] = target: T16, Amino acid residues 146-165 of human TNFR2 (human); experiment: ELISA, coated linear peptides 1 µg/well
T16 peptide: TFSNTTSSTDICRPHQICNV
Description: as §1

[19] = target: T17, Amino acid residues 154-174 of human TNFR2 (human); experiment: ELISA, coated linear peptides 1 µg/well
T17 peptide: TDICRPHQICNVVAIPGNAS
Description: as §1

[20] = target: T18, Amino acid residues 162-181 of human TNFR2 (human); experiment: ELISA, coated linear peptides 1 µg/well
T18 peptide: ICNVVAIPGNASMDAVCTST
Description: as §1

[21] = target: T19, Amino acid residues 1-20 of human TNFR2 (human); experiment: ELISA, coated linear peptides 1 µg/well
T19 construct: 20-mer fragment
T19 peptide: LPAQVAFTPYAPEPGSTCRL
Description: as §1

[22] = target: T20, Amino acid residues 108-127 of human TNFR2 (human); experiment: ELISA on TNFR2 peptide fragment; categorical score, 0 lowest to 4 highest affinity
T20 sequence (peptide): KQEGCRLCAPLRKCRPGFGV

[23] = target: T21, Amino acid residues 34-53 of human TNFR2 (human); experiment: as above
T21 sequence (peptide): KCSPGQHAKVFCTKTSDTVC

[24] = target: T22, Amino acid residues 98-117 of human TNFR2 (human); experiment: as above
T22 sequence (peptide): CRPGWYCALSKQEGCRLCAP

- Reading [1]: 1.2
- binding result [2]: no binding
- Reading [3]: 2
- Reading [4]: 2
- Reading [5]: 2
- Reading [6]: 2
- binding result [7]: no binding
- binding result [8]: no binding
- binding result [9]: no binding
- binding result [10]: no binding
- binding result [11]: no binding
- binding result [12]: no binding
- binding result [13]: no binding (tested: 0.1 µg/well)
- binding result [14]: no binding (tested: 0.1 µg/well)
- binding result [15]: no binding (tested: 0.1 µg/well)
- binding result [16]: no binding (tested: 0.1 µg/well)
- binding result [17]: no binding (tested: 0.1 µg/well)
- binding result [18]: no binding (tested: 0.1 µg/well)
- binding result [19]: no binding (tested: 0.1 µg/well)
- binding result [20]: no binding (tested: 0.1 µg/well)
- binding result [21]: no binding (tested: 0.1 µg/well)
- Affinity Score [22]: 2
- Affinity Score [23]: 0
- Affinity Score [24]: 1
B1: agonistic TNFR2 antibody TNFRAG1 (antibody, V domains shown)
VH: EVQLQQFGAELVKPGASVKISCKASGYTFTDYNIDWVKQSHGKSLEWIGDINPNYDSTSYSQKFRGKATLTVDKSSSTAYMELRSLTSEDTAVYYCARGNSWYFDVWGAGTTVTVSS
VL: QIVLTQSPALMSASPGEKVTMTCSASSSVRYMYWYQQKPRSSPKPWIYLTSNLASGVPARFSGSGSGTSYSLTISSMEAEDAATYYCQQWSSNPLTFGAGTKLELK
notes: the primary antibodies were detected with secondary antibodies against rodent IgG; also called monoclonal TNFR2 antibody TNFRAG1; TNFR2 agonist antibody
